Test results: PMC6821725, “Unique structure and function of viral rhodopsins” (Nature Communications, 2019)

How the values were obtained:
[1] = biological target: T1, Organic Lake Phycodnavirus rhodopsin II (OLPVRII) (Organic Lake phycodnavirus, UniProt Z9UQ29F7D0); assay: X-ray crystal structure […] A, in meso; UV-Vis absorption; assay type: binding; conditions: covalent; Schiff base to Lys195; crystals from 0.2 M sodium malonate pH 4.6; spectra in DDM
T1 construct: expressed in E. coli SE1 or C41(DE3); monomeric and pentameric fractions in DDM

Asp85 = Asp85 (UniProt position 98, WARYADWLFTT); conditions: cited from earlier work
[2] = biological target: OLPVRII triple mutant E26A/R36A/W203A (Organic Lake Phycodnavirus); assay: SEC
[3] = biological target: Organic Lake Phycodnavirus rhodopsin II (Organic Lake Phycodnavirus); assay: SEC
[4] = biological target: Organic Lake Phycodnavirus rhodopsin II (Organic Lake Phycodnavirus); assay: cross-linking; glutaraldehyde (10%), DDM-solubilized multimeric SEC fraction, 2 mg/ml protein, 8 h, 4 °C, read by SDS-PAGE
[5] = biological target: Organic Lake Phycodnavirus rhodopsin II (Organic Lake Phycodnavirus); assay: cross-linking; glutaraldehyde (10%), monomeric fraction reconstituted into POPC/POPG (4:1 by weight; POPC:POPS in another paragraph) liposomes, 1 mg/ml protein, 8 h, read by SDS-PAGE
[6] = biological target: Organic Lake Phycodnavirus rhodopsin II (Organic Lake Phycodnavirus); assay: crystal structure; in meso crystallization in monoolein from the monomeric fraction, 0.2 M sodium malonate pH 4.6, 15% PEG 550 MME, 22 °C; space group P2_(1), five molecules in the asymmetric unit

For `CC1=C(/C=C/C(C)=C/C=C/C(C)=C/C=O)C(C)(C)CCC1` [all-trans-retinal], the “X-ray crystal structure 1.9 A, in meso; UV-Vis absorption” value [1] was “The retinal cofactor is covalently bound to Lys195 through the Schiff base (RSB)”.
In the case of “Bacteriorhodopsin (bR) (Halobacterium salinarum)”, the pKa (Asp85) is listed as 2.7.
“OLPVRII triple mutant E26A/R36A/W203A (natural protein)” showed a pentamer:monomer ratio in the elution profile (pentamer:monomer) [2] of 1 and a stoichiometry N [2] of 5.
In the case of “Organic Lake Phycodnavirus rhodopsin II (natural protein)”, the pentamer:monomer ratio in the elution profile (pentamer:monomer) [3] is reported as 4, the stoichiometry N [3] is reported as 5 and the stoichiometry N [4] is reported as 5. The stoichiometry N [5] was 5 and the stoichiometry N [6] was 5.
